Target: T1, Human IL-17A (human, UniProt Q16552 20-155, limits assumed)
T1 construct: Biotinylated in the ELISAs; purified recombinant protein in SPR; also called hIL17A; hIL-17
Test: ELISA, captured DVD-Ig, biotin-human IL-17 titrated
Protocol: The following protocol is used to characterize the binding of TNF/IL-17 DVD-Ig proteins to human TNF and IL-17 by enzyme-linked immunosorbent assay (ELISA). An ELISA plate was coated with 50 μl per well of goat anti mouse IgG-Fc at 2 μg/ml, overnight at 4° C. The plate was washed 3 times with PBS/Tween. 50 μl Mab diluted to 1 μg/ml in PBS/0.1% BSA was added to appropriate wells and incubated for 1 hour at room temperature (RT). The plate was washed 3 times with PBS/Tween. 50 μl of serial diluted biotin-human TNF or IL-17 was added to appropriate wells and incubated for 1 hour at RT. The plate was washed 3 times with PBS/Tween. 50 μl of streptavidin-HRP diluted 1:10,000 in PBS/0.1% BSA was added to appropriate wells and incubated for 1 hour at RT. The plate was washed 3 times with PBS/Tween. 50 μl of TMB was added to appropriate wells and the reaction allowed to proceed for 1 minute. The reaction was stopped with 50 μl/well 2N H₂SO₄ and the absorbance read at 450 nm.

T1 sequence (Q16552 20-155 limits assumed): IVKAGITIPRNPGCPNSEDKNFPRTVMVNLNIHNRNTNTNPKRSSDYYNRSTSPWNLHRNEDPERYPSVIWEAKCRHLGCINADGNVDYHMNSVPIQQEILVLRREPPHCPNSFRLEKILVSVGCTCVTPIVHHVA

| EC50 [nM] | Binder |
| --- | --- |
| 0.2 | hMAK195-21-h10F7-B13.8 DVD-Ig (bispecific antibody, human IgG1, kappa, L234A L235A, DVD-Ig; IgG1 234,235 mut, kappa; GS10 linkers; light chain shared with the M11 DVD-Ig; also called hMAK195-21-GS10-B13 DVD) heavy: not shown light: DIQMTQSPSSLSASVGDRVTITCRASQLVSSAVAWYQQKPGKAPKLLIYWASARHTGVPSRFSGSGSGTDFTLTISSLQPEDFATYYCQQHYKTPFTFGQGTKLEIKRGGSGGGGSGDIQMTQSPSSLSASVGDRVTITCRASSGIISYIDWFQQKPGKAPKRLIYATFDLASGVPSRFSGSGSGTDYTLTISSLQPEDFATYYCRQVGSYPETFGQGTKLEIKRTVAAPSVFIFPPSDEQLKSGTASVVCLLNNFYPREAKVQWKVDNALQSGNSQESVTEQDSKDSTYSLSSTLTLSKADYEKHKVYACEVTHQGLSSPVTKSFNRGEC |
| 0.242 | hMAK195-21-h10F7-B20.8 DVD-Ig (bispecific antibody, human IgG1, kappa, L234A L235A, DVD-Ig; IgG1 234,235 mut, kappa; GS10 linkers; light chain shared with the M11 DVD-Ig; also called hMAK195-21-GS10-B20 DVD) heavy: not shown light: DIQMTQSPSSLSASVGDRVTITCRASQLVSSAVAWYQQKPGKAPKLLIYWASARHTGVPSRFSGSGSGTDFTLTISSLQPEDFATYYCQQHYKTPFTFGQGTKLEIKRGGSGGGGSGDIQMTQSPSSLSASVGDRVTITCRASSGIISYIDWFQQKPGKAPKRLIYATFDLASGVPSRFSGSGSGTDYTLTISSLQPEDFATYYCRQVGSYPETFGQGTKLEIKRTVAAPSVFIFPPSDEQLKSGTASVVCLLNNFYPREAKVQWKVDNALQSGNSQESVTEQDSKDSTYSLSSTLTLSKADYEKHKVYACEVTHQGLSSPVTKSFNRGEC |
| 0.1 | hMAK195-24-h10F7-M10.8 DVD-Ig (bispecific antibody, human IgG1, kappa, L234A L235A, DVD-Ig; IgG1 234,235 mut, kappa; GS10 linkers; also called hMAK195-24-GS10-M10 DVD) heavy: not shown light: DIQMTQSPSSLSASVGDRVTITCKASQLVSSAVAWYQQKPGKAPKLLIYWASTLHTGVPSRFSGSGSGTDFTLTISSLQPEDFATYYCQQHYRTPFTFGQGTKLEIKRGGSGGGGSGDIQMTQSPSSLSASVGDRVTITCSASSGSISYIDWFQQKPGKAPKRLIYATFELASGVPSRFSGSGSGTDFTLTISSLQPEDFATYYCHQLGSYPDTFGQGTKLEIKRTVAAPSVFIFPPSDEQLKSGTASVVCLLNNFYPREAKVQWKVDNALQSGNSQESVTEQDSKDSTYSLSSTLTLSKADYEKHKVYACEVTHQGLSSPVTKSFNRGEC |
| > 0.5 | hMAK195-24-h10F7-M11.4 DVD-Ig wt (bispecific antibody, human IgG1, kappa, DVD-Ig; wild-type IgG1 (CG1 Z NONA), kappa; short (SS) linkers ASTKGP / TVAAP; also called HMAK195-24-SS-H10F7-M11 DVD) heavy: not shown light: DIQMTQSPSSLSASVGDRVTITCKASQLVSSAVAWYQQKPGKAPKLLIYWASTLHTGVPSRFSGSGSGTDFTLTISSLQPEDFATYYCQQHYRTPFTFGQGTKLEIKRTVAAPDIQMTQSPSSLSASVGDRVTITCRASSGIISYIDWFQQKPGKAPKRLIYATFDLASGVPSRFSGSGSGTDYTLTISSLQPEDFATYYCRQVGSYPETFGQGTKLEIKRTVAAPSVFIFPPSDEQLKSGTASVVCLLNNFYPREAKVQWKVDNALQSGNSQESVTEQDSKDSTYSLSSTLTLSKADYEKHKVYACEVTHQGLSSPVTKSFNRGEC |
| 0.104 | hMAK199-6-h10F7-M11.8 DVD-Ig (bispecific antibody, human IgG1, kappa, L234A L235A, DVD-Ig; IgG1 234,235 mut, kappa; GS10 linkers; also called HMAK199-6-GS10-H10F7-M11 DVD) heavy: not shown light: DIQMTQSPSSLSASVGDRVTITCRASQDIYDVLNWYQQKPGKAPKLLIYYASRLQSGVPSRFSGSGSGTDFTLTISSLQPEDFATYYCQQGITLPPTFGQGTKLEIKRGGSGGGGSGDIQMTQSPSSLSASVGDRVTITCRASSGIISYIDWFQQKPGKAPKRLIYATFDLASGVPSRFSGSGSGTDYTLTISSLQPEDFATYYCRQVGSYPETFGQGTKLEIKRTVAAPSVFIFPPSDEQLKSGTASVVCLLNNFYPREAKVQWKVDNALQSGNSQESVTEQDSKDSTYSLSSTLTLSKADYEKHKVYACEVTHQGLSSPVTKSFNRGEC |
| 0.079 | hMAK199-10-h10F7-M10.8 DVD-Ig (bispecific antibody, human IgG1, kappa, L234A L235A, DVD-Ig; IgG1 234,235 mut, kappa; GS10 linkers; also called HMAK199-10-GS10-H10F7-M10 DVD) heavy: not shown light: DIQMTQSPSSLSASVGDRVTITCRASQDISNFLNWYQQKPGKAPKLLIYYTSRLQSGVPSRFSGSGSGTDYTLTISSLQPEDFATYFCQQGNTQPPTFGQGTKLEIKRGGSGGGGSGDIQMTQSPSSLSASVGDRVTITCSASSGSISYIDWFQQKPGKAPKRLIYATFELASGVPSRFSGSGSGTDFTLTISSLQPEDFATYYCHQLGSYPDTFGQGTKLEIKRTVAAPSVFIFPPSDEQLKSGTASVVCLLNNFYPREAKVQWKVDNALQSGNSQESVTEQDSKDSTYSLSSTLTLSKADYEKHKVYACEVTHQGLSSPVTKSFNRGEC |
| 0.163 | hMAK199-6-h10F7-M10.8 DVD-Ig (bispecific antibody, human IgG1, kappa, L234A L235A, DVD-Ig; IgG1 234,235 mut, kappa; GS10 linkers; also called HMAK199-6-GS10-H10F7-M10 DVD) heavy: not shown light: DIQMTQSPSSLSASVGDRVTITCRASQDIYDVLNWYQQKPGKAPKLLIYYASRLQSGVPSRFSGSGSGTDFTLTISSLQPEDFATYYCQQGITLPPTFGQGTKLEIKRGGSGGGGSGDIQMTQSPSSLSASVGDRVTITCSASSGSISYIDWFQQKPGKAPKRLIYATFELASGVPSRFSGSGSGTDFTLTISSLQPEDFATYYCHQLGSYPDTFGQGTKLEIKRTVAAPSVFIFPPSDEQLKSGTASVVCLLNNFYPREAKVQWKVDNALQSGNSQESVTEQDSKDSTYSLSSTLTLSKADYEKHKVYACEVTHQGLSSPVTKSFNRGEC |
| 0.133 | hMAK199-10-h10F7-M11.8 DVD-Ig (bispecific antibody, human IgG1, kappa, L234A L235A, DVD-Ig; IgG1 234,235 mut, kappa; GS10 linkers; also called HMAK199-10-GS10-H10F7-M11 DVD) heavy: not shown light: DIQMTQSPSSLSASVGDRVTITCRASQDISNFLNWYQQKPGKAPKLLIYYTSRLQSGVPSRFSGSGSGTDYTLTISSLQPEDFATYFCQQGNTQPPTFGQGTKLEIKRGGSGGGGSGDIQMTQSPSSLSASVGDRVTITCRASSGIISYIDWFQQKPGKAPKRLIYATFDLASGVPSRFSGSGSGTDYTLTISSLQPEDFATYYCRQVGSYPETFGQGTKLEIKRTVAAPSVFIFPPSDEQLKSGTASVVCLLNNFYPREAKVQWKVDNALQSGNSQESVTEQDSKDSTYSLSSTLTLSKADYEKHKVYACEVTHQGLSSPVTKSFNRGEC |
